Data from patent US10081661.

Assays:
Assay in all cases: cell_activity
[1] = test system: ZFN SBS#40477 (human albumin); settings: paired with 47192; HepG2
[2] = test system: ZFN SBS#47079 (human albumin); settings: paired with 47863; K562
[3] = test system: ZFN SBS#47169 (human albumin); settings: paired with 47171; HepG2, 100 ng mRNA each
[4] = test system: ZFN SBS#47898 (human albumin); settings: paired with 47863; K562
[5] = test system: ZFN SBS#47931 (human albumin); settings: paired with 47863; K562
[6] = test system: ZFN SBS#47171 (human albumin); settings: paired with 47079; K562, 75 ng mRNA
[7] = test system: ZFN SBS#47192 (human albumin); settings: paired with 47079; K562
[8] = test system: ZFN SBS#47863 (human albumin); settings: paired with 47898; K562
[9] = test system: ZFN SBS#47864 (human albumin); settings: paired with 47931; HepG2

Sequence	activity [1] [% indels]	activity [2] [% indels]	activity [3] [% indels]	activity [4] [% indels]	activity [5] [% indels]	activity [6] [% indels]	activity [7] [% indels]	activity [8] [% indels]	activity [9] [% indels]
CCTATCCATTGCACTATGCTTTATTTAA (double strand) [human/rhesus albumin site]	23.7	86.8	22.2	91.9	78.9	–	–	–	–
TTTGGGATAGTTATGAATTCAATCTTCA (double strand) [human albumin site]	–	–	–	–	–	79.4	77.9	91.9	21.3
